Test system: MS2 coat protein
Assay: apparent KD of MS2 coat protein; designed switch direction (-1 OFF switch, 1 ON switch): 1; higher = weaker reporter binding
Method in brief: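 Designed RNA switches with common flanks were transcribed on Illumina chips by stalled E. coli RNA polymerase and titrated with SNAP-549-labelled MS2 coat protein, from 0.7 or 1.5 nM doubling to 3 µM, in Tris-HCl pH 7.5 buffer with KCl, MgCl2, BSA, DTT, tRNA and Tween-20. Steps lasted 0.8–1.5 h (lowest) to 10–20 min (highest). Titrations ran without input, with 200 uM small-molecule ligand, or with an oligonucleotide input. Normalised cluster fluorescence was curve-fitted, and apparent KD is the per-design median over clusters.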

[1] = input ligand: microRNA oligo, concentration not stated
[2] = Eterna round: R95, input ligand: FMN 200 uM
[3] = Eterna round: R95, input ligand: microRNA oligo, concentration not stated
[4] = Eterna round: R95, input ligand: none

Row | Sequence | apparent KD of MS2 coat protein (input ligand: FMN 200 uM) | apparent KD of MS2 coat protein [1] | apparent KD of MS2 coat protein (input ligand: none) | apparent KD of MS2 coat protein [2] | apparent KD of MS2 coat protein [3] | apparent KD of MS2 coat protein [4]
1 | GUGGUCAGACAUGAGGAUCACCCAUGUGGAAUAAAUAACGGACAGGAUAUUUAAUAUAGGAUAUAGAAGAAGGGUUGAUUGGUG (Eterna round: R96, puzzle: Same State NG 3) | 104 nM | 77.9 nM | 90.8 nM |  |  | 
2 | UGGCUGGUGCUAGGAUAUACAUGAGGAAUCCUCGUAGAAGGAUCACGACAUGAGGAUCACCCAUGUAGCCGUCCGUAGACGGCU [salish99_SSNG1_r04_006] (Eterna round: R96, puzzle: Same State NG 1) | 1930 nM | 190 nM | 312 nM |  |  | 
3 | UUAAUUAAUUAAUUAUACAUGAGGAUCACCCAUGUAAGUGAUCAGGAUAUCAGCUCGUUUAGAGCUGAGAAGGGAUCCAUGUAA [SSNG3/14-A3] (Eterna round: R96, puzzle: Same State NG 3) | 85.7 nM | 135 nM | 150 nM |  |  | 
4 | AGUCCAGCCUGAGCUGGACAAAAGCAUGUACAUGAGGAUCACCCAUGUUCAUGUACAAGCUUUUUGCUCGUCUUAAA [salish99_208a_r3_026] (puzzle: Sensor for hsa-mir-208a) |  |  |  | 483 nM | 14.6 nM | 533 nM
5 | AGUCCUGAAAAGAAAAUACAGAGAGAUGUACAUGAGGAUCACCCAUGUCAUGUACAAGUUCUAUGCUCGUCAUAUAA [Sensorship 22 - Jieux - Sensor for hsa-mir-208a] (puzzle: Sensor for hsa-mir-208a) |  |  |  | 510 nM | 106 nM | 617 nM
6 | GUUACAUGAGGAUCACCCAUGUAUGUGUGGGAGUAAGUGUCUUAGGAUAUCUGUUAUUUAAUUCAAGAGAAGGAAGAUUGUUGU [JMF's solution 46] (Eterna round: R96, puzzle: Same State NG 3) | 94.6 nM | 79.1 nM | 93.7 nM |  |  | 
7 | AUUUUUAAUGCAGGAUAUGAUUAACAUGAGGAUCACCCAUGUGGUGUUGUGAGUAAGGAGAGUGAUCAGAAGGGCAUUUUUUUG [JMF's solution 90] (Eterna round: R96, puzzle: Same State NG 2) | 753 nM | 287 nM | 458 nM |  |  | 
8 | GUUAAGAACUAAGGAUAUUGAAUACAUAUGUUUAACAUGAGGAUCACCCAUGUGGGUUGCGGUGUCGAGAAGGUAGAAUAAUAG [Mat - same State NG 2 - JL mod - D98] (Eterna round: R96, puzzle: Same State NG 2) |  | 148 nM |  |  |  | 
9 | AACAAUCUAUCUGAGGAUAUCAUGAGAAUAACAUGAGGAUCACCCAUGUGCAGGAAAACUGCAUAUGAGAAGGCAGAUAGAUUGG [Mat - Same State 2 - Mod - D21] (puzzle: Same State 2) |  |  |  | 78.6 nM | 546 nM | 2730 nM
10 | GGUAGGUUACUACCAACACAUGAGGAUCACCCAUGUUUUCAUGAGGAUAUGGUACCUAUUUGGUACCAGAAGGCAUGGUUAAUU [Fiskers NG3ss - 18] (Eterna round: R96, puzzle: Same State NG 3) | 48.6 nM | 76.8 nM | 104 nM |  |  | 
11 | UUGAAGAAUUAAGGAUAUUGAAUACAUAUGUUUAACAUGAGGAUCACCCAUGUGGGUUGCGGUGUCGAGAAGGUAAAAUACUAG [Mat - same State NG 2 - JL mod - D97] (Eterna round: R96, puzzle: Same State NG 2) | 236 nM | 278 nM | 270 nM |  |  | 
12 | AUAAGGCAAGCUUUUUUCUCGUAGUGUAAACAUGAGGAUCACCCAUGUGCCCACCCUGGAUCUUUGGAUCGCGGAAC [Raxesori] (Eterna round: R96, puzzle: Sensor for hsa-mir-208a) | 103 nM | 21.8 nM | 90.5 nM |  |  | 
13 | GUUACAUGAGGAUCACCCAUGUAUGUGUGGGAGUAAGUGUCUUAGGAUAUCUGUUAUUUAAAUUAAGAGAAGGAAGAUUGUUGU [JMF's solution 8] (Eterna round: R96, puzzle: Same State NG 3) | 120 nM | 89.2 nM | 110 nM |  |  | 
14 | GAGCUCCAACGCGGAGCUCCACAUGAGGAUCACCCAUGUACACAGGAUAUCACUCCCUUUGGGAGUGAGAAGGGUGGUUCGGAA [Bebeave] (Eterna round: R96, puzzle: Same State NG 3) | 41.4 nM | 41.9 nM | 58.6 nM |  |  | 
15 | UCAGUCAUGUAAGGAUAUGCAGCCGUUUCGGCUGCAGAAGGUACUAUAAUUACAUGAGGAUCACCCAUGUUAUAAAAUUUAUAU [JL SSNG1 1.25] (Eterna round: R96, puzzle: Same State NG 1) |  | 38.8 nM |  |  |  | 
16 | UAGAAACAUGAGGAUCACCCAUGUGUCAAAGACAUAGGAUAUCGUGACCGGCGCCGGACACGAGAAGGGUGGUAAA [Quingees] (puzzle: Same State 1) |  |  |  | 387 nM | 209 nM | 386 nM

Row | Sequence | apparent KD of MS2 coat protein (input ligand: FMN 200 uM) | apparent KD of MS2 coat protein [1] | apparent KD of MS2 coat protein (input ligand: none) | apparent KD of MS2 coat protein [2] | apparent KD of MS2 coat protein [3] | apparent KD of MS2 coat protein [4]
17 | UACAAUCUAUCUGAGGAUAUCAUGAUAAUAACAUGAGGAUCACCCAUGUGCAGGAAAACUGCAUAUGAGAAGGCAGAUAGAUUGA [Mat - Same State 2 - Mod - D13] (puzzle: Same State 2) |  |  |  | 89.9 nM | 93.1 nM | 417 nM
18 | GUUACAUGAGGAUCACCCAUGUAUGUGUGGGAGUAAGUGUCUUAGGAUAUCUAAUAUUUAAAUUAAGAGAAGGAAGAUUGUUGU [JMF's solution 6] (Eterna round: R96, puzzle: Same State NG 3) | 112 nM | 89.9 nM | 112 nM |  |  | 
19 | GUGGCCUAGGCACAGGAUAUGUUGCUCGUAACAUGAGGAUCACCCAUGUGCCUAUGAGAUUUAAUGCAGAAGGGUGCACGCCACG [Edbeso] (Eterna round: R96, puzzle: Same State 2) | 14.3 nM | 123 nM | 139 nM |  |  | 
20 | UUUGGGUGGCUGGAGGAUAUUCGAGUGGUUACAUGAGGAUCACCCAUGUGUCGCGCGGUACGCGAGGAGAAGGCUGGCGGCCGUU (puzzle: Same State 2) |  |  |  |  | 53.4 nM | 
21 | UGGCUGGUGCUAGGAUAUGCAUGAGGCCUCCUCGUAGAAGGAGCACGACAUGAGGAUCACCCAUGUGGCCGUCCGUGGACGGCU [salish99_SSNG1_r04_014] (Eterna round: R96, puzzle: Same State NG 1) | 45.4 nM | 44.9 nM | 56.1 nM |  |  | 
22 | UUGCGGGCUUGAGGAUAUUGAGUACAUAUGUUUAACAUGAGGAUCACCCAUGUGGGUUGCGGUAUCGAGAAGGUAGCUUCCUGC [salish99_SSNG2_r04_812] (Eterna round: R96, puzzle: Same State NG 2) | 76.3 nM | 83.6 nM | 79.1 nM |  |  | 
23 | AGACAUGAGGAUCACCCAUGUAUACACUAUAUCAGUGUAACAUAGGAUAUCCACCGCCAUGCUGUGGAGAAGGAUGAAACGGGC [Raerlaan] (Eterna round: R96, puzzle: Same State NG 3) | 211 nM | 65.9 nM | 108 nM |  |  | 
24 | AGUCCAGCAUAAGCUGGACAAAAGCAUGUACAUGAGGAUCACCCAUGUCAUGUACAAGCUUUUUGCUCGUCUUAAUA [Mat - hsa-mir-208a - Mod of JL - D36] (puzzle: Sensor for hsa-mir-208a) |  |  |  | 446 nM | 19.8 nM | 500 nM
25 | AUAAAACAUGAGGAUCACCCAUGUAGACACGAUGGAGGAUAUACUAGAUCGAAAGAUCUAGUAGAAGGCCGACGUA [Mat - Same State 1 - JL mod - D95] (Eterna round: R96, puzzle: Same State 1) | 21.8 nM | 15.6 nM | 19.7 nM |  |  | 
26 | GGAGCUGGCACCGAGGAUAUUCAUAUUAAAACAUGAGGAUCACCCAUGUAGGCCAGAAGGCCUUGGGAGAAGGCGGAUCAGCUCG [Xeonanis - 12] (puzzle: Same State 2) |  |  |  | 30.8 nM | 532 nM | 532 nM
27 | AAAGAAAAACUAGAGGAUAUCCGAGUGGUAACAUGAGGAUCACCCAUGUGAUGAAAGGAACAUGAGGAGAAGGCUAGAAGAAAAA [JL Nando mod 8] (Eterna round: R96, puzzle: Same State 2) | 20.6 nM | 47.6 nM | 56.5 nM |  |  | 
28 | GGUAUCGACGCAGGAUAUGCUAUCCUUUGGGUAGCAGAAGGGUGGACAUGAGGAUCACCCAUGUGGGUGCCAGGGCGUGAGCCC [JL SSNG1 1.83] (Eterna round: R96, puzzle: Same State NG 1) | 283 nM | 12.8 nM | 440 nM |  |  | 
29 | AUCAAUCUAUCUCAGGAUAUCAUGUCAAAGACAUGAGGAUCACCCAUGUACCAGGAAACUGGUUAUGAGAAGGGAGAUAGAUUGA [Mat - Same State 2 - Mod - D30] (puzzle: Same State 2) |  |  |  | 56.2 nM | 158 nM | 53.2 nM
30 | AGUAGUGUAACAUGAGGAUCACCCAUGUAAGAAGAUGUAACCUAGGAUAUGGAUGAUAUGUUAGACCAGAAGGAGGAUUGUUUA [JR_SSNG3_Sub039] (Eterna round: R96, puzzle: Same State NG 3) | 43.2 nM | 116 nM | 207 nM |  |  | 
31 | CGUAGGAUAUGCAGAGGAUCACCCUGUAGAAGGACGAUUACGUAGGAUAUGCAGAGGAUCACCCUGUAGAAGGACGACUAAUCU [pwkr ssNG3 DX 2xF5 +2xFMN.2] (Eterna round: R96, puzzle: Same State NG 3) | 174 nM | 105 nM | 129 nM |  |  | 

Source: the supplement of paper PMC9170038
